The text below walks through data of PMC3858272, “Construction and Application of Elastin Like Polypeptide Containing IL-4 Receptor Targeting Peptide” (PLoS ONE, 2013).

One experiment deals with T1, IL-4Rα (CD124) (UniProt P24394 26-232).
T1 construct: interleukin-4 receptor alpha chain (CD124), recombinant protein bought from Sino Biological; No catalogue number is printed; also called IL-4 receptor; source: bought: Sino Biological
T1 sequence (looked up): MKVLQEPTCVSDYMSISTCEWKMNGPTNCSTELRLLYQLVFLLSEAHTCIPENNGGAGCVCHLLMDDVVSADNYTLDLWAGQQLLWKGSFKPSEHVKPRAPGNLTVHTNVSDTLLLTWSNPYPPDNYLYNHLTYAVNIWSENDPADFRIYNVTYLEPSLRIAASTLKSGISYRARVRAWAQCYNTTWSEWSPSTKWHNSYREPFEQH
The experiment can be described thus: SPR; IL-4Rα immobilised by amine coupling on a carboxymethyl dextran chip (2000±400 RU); AP1 peptide 3.125 to 50 µM, [AP1-V12]6 125 nM to 1 µM, [V14]6 1 µM flowed for 3 min at 25 µL/min; 25°C; kinetic fits with Scrubber 2. The following applies: both partners purified.

Experiment [1] addresses T2, IL-4 receptor on H226 and MDA-MB-231 cancer cells (human (endogenous in H226 and …, UniProt P24394 26-825)).
T2 construct: interleukin-4 receptor as expressed on the surface of human cancer cell lines; On cells the alpha chain may stand with other receptor chains; source: endogenous, on H226 and MDA-MB-231 cells
T2 sequence (looked up): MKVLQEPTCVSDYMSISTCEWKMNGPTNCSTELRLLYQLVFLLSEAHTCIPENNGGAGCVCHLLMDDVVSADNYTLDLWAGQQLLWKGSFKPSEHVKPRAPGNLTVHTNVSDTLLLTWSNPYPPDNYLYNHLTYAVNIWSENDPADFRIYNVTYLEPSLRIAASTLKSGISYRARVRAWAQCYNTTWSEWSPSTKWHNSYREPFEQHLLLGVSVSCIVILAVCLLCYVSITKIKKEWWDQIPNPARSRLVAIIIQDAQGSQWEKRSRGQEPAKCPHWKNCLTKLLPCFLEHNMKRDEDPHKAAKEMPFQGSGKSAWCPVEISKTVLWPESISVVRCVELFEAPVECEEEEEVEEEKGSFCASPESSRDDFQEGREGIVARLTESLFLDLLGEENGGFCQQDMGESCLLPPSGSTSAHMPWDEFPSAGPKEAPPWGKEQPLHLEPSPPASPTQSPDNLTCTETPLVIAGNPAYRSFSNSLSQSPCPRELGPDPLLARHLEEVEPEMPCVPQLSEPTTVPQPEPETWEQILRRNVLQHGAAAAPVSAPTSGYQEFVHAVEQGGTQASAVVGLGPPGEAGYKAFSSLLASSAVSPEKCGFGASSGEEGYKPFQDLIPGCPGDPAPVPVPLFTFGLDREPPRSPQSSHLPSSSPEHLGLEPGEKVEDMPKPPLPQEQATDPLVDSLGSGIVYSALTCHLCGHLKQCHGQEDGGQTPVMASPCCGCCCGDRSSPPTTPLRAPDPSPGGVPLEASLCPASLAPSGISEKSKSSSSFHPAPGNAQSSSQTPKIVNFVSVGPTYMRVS
The experiment can be described thus: flow cytometry on cells; 10 µM Alexa 488-labelled polymer or peptide, 1 h at 4°C, on H226 and MDA-MB-231 cells (IL-4R highly expressed) after blocking with 2% BSA; H460 cells as IL-4R negative control. The following applies: one partner purified.

B1: AP1 peptide (peptide)
peptide: CRKRLDRN
notes: peptide found earlier by phage display screening, termed AP1; also called free AP1 peptide
What is called koff is the first-order rate constant of dissociation. Higher therefore signals fast dissociation. For orientation: kon means a measure of how fast the partners come together. In the experiment with IL-4Rα (CD124), B1 had a koff of 0.17 s⁻¹ and a kon of 35 M⁻¹ s⁻¹.

B2: [AP1-V12]6 polymer, SGPG[VGRKRLDRNG(VGVPG)12]6WPC (designed binder)
chain: SGPGVGRKRLDRNGVGVPGVGVPGVGVPGVGVPGVGVPGVGVPGVGVPGVGVPGVGVPGVGVPGVGVPGVGVPGVGRKRLDRNGVGVPGVGVPGVGVPGVGVPGVGVPGVGVPGVGVPGVGVPGVGVPGVGVPGVGVPGVGVPGVGRKRLDRNGVGVPGVGVPGVGVPGVGVPGVGVPGVGVPGVGVPGVGVPGVGVPGVGVPGVGVPGVGVPGVGRKRLDRNGVGVPGVGVPGVGVPGVGVPGVGVPGVGVPGVGVPGVGVPGVGVPGVGVPGVGVPGVGVPGVGRKRLDRNGVGVPGVGVPGVGVPGVGVPGVGVPGVGVPGVGVPGVGVPGVGVPGVGVPGVGVPGVGVPGVGRKRLDRNGVGVPGVGVPGVGVPGVGVPGVGVPGVGVPGVGVPGVGVPGVGVPGVGVPGVGVPGVGVPGWPC
notes: The vector's insert begins with an ATG; also called [AP1-V12]6 protein; targeted [AP1-V12]6 polymer; source: E. coli BL21 (DE3), purified (four rounds of inverse transition cycling)
In the experiment with IL-4Rα (CD124), B2 showed a koff of 0.00125 s⁻¹ and a kon of 5810 M⁻¹ s⁻¹.

B3: Alexa 488-labeled [AP1-V12]6 (designed binder)
chain: SGPGVGRKRLDRNGVGVPGVGVPGVGVPGVGVPGVGVPGVGVPGVGVPGVGVPGVGVPGVGVPGVGVPGVGVPGVGRKRLDRNGVGVPGVGVPGVGVPGVGVPGVGVPGVGVPGVGVPGVGVPGVGVPGVGVPGVGVPGVGVPGVGRKRLDRNGVGVPGVGVPGVGVPGVGVPGVGVPGVGVPGVGVPGVGVPGVGVPGVGVPGVGVPGVGVPGVGRKRLDRNGVGVPGVGVPGVGVPGVGVPGVGVPGVGVPGVGVPGVGVPGVGVPGVGVPGVGVPGVGVPGVGRKRLDRNGVGVPGVGVPGVGVPGVGVPGVGVPGVGVPGVGVPGVGVPGVGVPGVGVPGVGVPGVGVPGVGRKRLDRNGVGVPGVGVPGVGVPGVGVPGVGVPGVGVPGVGVPGVGVPGVGVPGVGVPGVGVPGVGVPGWPC
modifications: Alexa Fluor 488-C5 maleimide on the C-terminal Cys residue
notes: as m1; The labelled form of m1, used on cells (flow cytometry, confocal microscopy); also called Alexa-labeled [AP1-V12]6; targeted [AP1-V12]6 polymer; source: E. coli BL21 (DE3), purified (four rounds of inverse transition cycling), then labelled
Turning to B3, in experiment [1], the “fold cell attachment, H226 cells over H460 cells” value was 5.9 ± 1.6 fold and the “fold cell attachment, MDA-MB-231 cells over H460 cells” value was found to be 5.6 ± 1.3 fold.
